For three molecules, EC50 results are on record in patent US20190256582A1 (published 2019).

Among the targets are TBEV NS1; YFV NS1; WNV NS1; JEV NS1.
Assay in all cases: ELISA
A general note: In an ELISA, binding on a coated surface is turned into a signal by an enzyme label.

For assay [1], the target named is ZIKV NS1 (Zika virus (ZIKV)).
The target in assay [2] is ZIKV NS1 (Zika virus (ZIKV)). The source holds these as a separate data set.

Like-named read-outs stand apart in the source and are kept apart here.

B1: ZKA15 (antibody, V domains shown)
VH: QVQLQESGPGLVKPSETLSLTCTVSGGFINSYYWSWIRQPAGKGLEWIGRIYKSGSTNYNPSLKSRVTMSLDTSKYQFSLKLRSVTAADTAVYYCARDPYGDYVKAFDIWGQGTMVTVSS
VL: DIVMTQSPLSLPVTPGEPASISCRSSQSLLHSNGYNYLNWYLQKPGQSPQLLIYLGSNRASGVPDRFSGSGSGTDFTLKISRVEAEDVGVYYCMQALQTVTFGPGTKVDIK
Broadly, the EC50 is the concentration needed to bring the measured effect to its halfway point. A higher EC50 goes with lower potency in that assay. As for B1, the concentration for a half-maximal effect (EC50) with ZIKV NS1 [1] is 2.76 ng/mL; with ZIKV NS1 [2], 3 ng/mL; with TBEV NS1 it was 4.61 µg/mL; in the assay with YFV NS1, 2.78 µg/mL; in the assay with WNV NS1, 3.22 µg/mL; in the assay with JEV NS1, 5.5 µg/mL.

B2: ZKA35 (antibody, V domains shown)
VH: QVQLQESGPGLVKPSQTLSLTCTVSGGSISTGGYYWSWIRQHPGKGLEWIGYIYYSGNTYYNPSLKSRVTISVDTSKKQFSLKLSSVTAADTAVYYCAKGGGRERPFDYWGQGTLVTVSS
VL: QSVLTQPPSASGTPGQRVTISCSGSSSNIGRNYVDWYQQLPGTAPKLLIYRNNQRPSGVPERFSGSKSGTSASLAISGLRSEDEADYYCVAWDDSRSGFVVFGGGTKVTVL
Consider B2, for which the 50% effective concentration (EC50) in the assay with ZIKV NS1 [1] amounted to 1.74 ng/mL; with ZIKV NS1 [2], 2 ng/mL.

B3: ZKA25 (antibody, V domains shown)
VH: EVQLVESGGGLVRPGGSLRLSCAASGFTFRSHWMSWVRQAPGKGLEWVANIKEDGYEKYYVDSVKGRFTISRDNAKNSLYLQMKSLRAEDTAVYYCARDLRVYSGRGFDPWGQGTLVTVSS
VL: not shown
Regarding B3, the EC50 turned out to be 2.44 ng/mL in the assay with ZIKV NS1 [1] and 2 ng/mL with ZIKV NS1 [2].
